Source: patent US20040014026A1 (YISSUM RESEARCH DEVELOPMENT COMPANY OF THE HEBREW …, published 2004)
Each block holds one molecule with its values, some of them ahead of it.

B1: Flag-HOS/β-TrCP2 (other, human, UniProt Q9UKB1 1-542, looked up, not shown: small tags and cut ends)
chain: MEPDSVIEDKTIELMCSVPRSLWLGCANLVESMCALSCLQSMPSVRCLQISNGTSSVIVSRKRPSEGNYQKEKDLCIKYFDQWSESDQVEFVEHLISRMCHYQHGHINSYLKPMLQRDFITALPEQGLDHIAENILSYLDARSLCAAELVCKEWQRVISEGMLWKKLIERMVRTDPLWKGLSERRGWDQYLFKNRPTDGPPNSFYRSLYPKIIQDIETIESNWRCGRHNLQRIQCRSENSKGVYCLQYDDEKIISGLRDNSIKIWDKTSLECLKVLTGHTGSVLCLQYDERVIVTGSSDSTVRVWDVNTGEVLNTLIHHNEAVLHLRFSNGLMVTCSKDRSIAVWDMASATDITLRRVLVGHRAAVNVVDFDDKYIVSASGDRTIKVWSTSTCEFVRTLNGHKRGIACLQYRDRLVVSGSSDNTIRLWDIECGACLRVLEGHEELVRCIRFDNKRIVSGAYDGKIKVWDLQAALDPRAPASTLCLRTLVEHSGRVFRLQFDEFQIISSSHDDTILIWDFLNVPPSAQNETRSPSRTYTYISR
notes: also called β-TrCP2/HOS
B2: IKK-phosphorylated IκBα (pIκBα) (other, UniProt P25963 1-317, looked up)
chain: MFQAAERPQEWAMEGPRDGLKKERLLDDRHDSGLDSMKDEEYEQMVKELQEIRLEPQEVPRGSEPWKQQLTEDGDSFLHLAIIHEEKALTMEVIRQVKGDLAFLNFQNNLQQTPLHLAVITNQPEIAEALLGAGCDPELRDFRGNTPLHLACEQGCLASVGVLTQSCTTPHLHSILKATNYNGHTCLHLASIHGYLGIVELLVSLGADVNAQEPCNGRTALHLAVDLQNPDLVSLLLKCGADVNRVTYQGYSPYQLTWGRPSTRIQQQLGQLTLENLQMLPESEDEESYDTESEFTEFTEDELPYDDCVFGGQRLTL
modifications: phosphorylated by IKK2 (sites not given); 35S-labelled in the in vitro assays
notes: in the other assays it was phosphorylated in vitro by IKK2
B3: non-phosphorylated IκBα (other, UniProt P25963 1-317, looked up)
chain: B2 chain
B4: WDK2 (Flag-WD with Lys 326 mutated to Ala) (other, UniProt Q9Y297 229-605, looked up, not shown: small tags and cut ends)
chain: IERMVRTDSLWRGLAERRGWGQYLFKNKPPDGNAPPNSFYRALYPKIIQDIETIESNWRCGRHSLQRIHCRSETSKGVYCLQYDDQKIVSGLRDNTIAIWDKNTLECKRILTGHTGSVLCLQYDERVIITGSSDSTVRVWDVNTGEMLNTLIHHCEAVLHLRFNNGMMVTCSKDRSIAVWDMASPTDITLRRVLVGHRAAVNVVDFDDKYIVSASGDRTIKVWNTSTCEFVRTLNGHKRGIACLQYRDRLVVSGSSDNTIRLWDIECGACLRVLEGHEELVRCIRFDNKRIVSGAYDGKIKVWDLVAALDPRAPAGTLCLRTLVEHSGRVFRLQFDEFQIVSSSHDDTILIWDFLNDPAAQAEPPRSPSRTYTYISR
notes: domain: WD fragment (F-Box deleted E3RS); also called Flag-WD mutant WDK2; mutant WD
B5: Flag-tagged E3RS/βTrCP (Flag-E3RS) (other, UniProt Q9Y297 1-605, looked up, not shown: small tags and cut ends)
chain: MDPAEAVLQEKALKFMCSMPRSLWLGCSSLADSMPSLRCLYNPGTGALTAFQNSSEREDCNNGEPPRKIIPEKNSLRQTYNSCARLCLNQETVCLASTAMKTENCVAKTKLANGTSSMIVPKQRKLSASYEKEKELCVKYFEQWSESDQVEFVEHLISQMCHYQHGHINSYLKPMLQRDFITALPARGLDHIAENILSYLDAKSLCAAELVCKEWYRVTSDGMLWKKLIERMVRTDSLWRGLAERRGWGQYLFKNKPPDGNAPPNSFYRALYPKIIQDIETIESNWRCGRHSLQRIHCRSETSKGVYCLQYDDQKIVSGLRDNTIKIWDKNTLECKRILTGHTGSVLCLQYDERVIITGSSDSTVRVWDVNTGEMLNTLIHHCEAVLHLRFNNGMMVTCSKDRSIAVWDMASPTDITLRRVLVGHRAAVNVVDFDDKYIVSASGDRTIKVWNTSTCEFVRTLNGHKRGIACLQYRDRLVVSGSSDNTIRLWDIECGACLRVLEGHEELVRCIRFDNKRIVSGAYDGKIKVWDLVAALDPRAPAGTLCLRTLVEHSGRVFRLQFDEFQIVSSSHDDTILIWDFLNDPAAQAEPPRSPSRTYTYISR
notes: F-box protein, receptor subunit of the IκB-E3; Immunopurified material may carry endogenous Skp1/Cul1; also called β-TrCP/E3RS; WT E3RS
B6: Flag-F-Box (F-Box fragment of E3RS) (other, UniProt Q9Y297 1-228, looked up, not shown: small tags and cut ends)
chain: MDPAEAVLQEKALKFMCSMPRSLWLGCSSLADSMPSLRCLYNPGTGALTAFQNSSEREDCNNGEPPRKIIPEKNSLRQTYNSCARLCLNQETVCLASTAMKTENCVAKTKLANGTSSMIVPKQRKLSASYEKEKELCVKYFEQWSESDQVEFVEHLISQMCHYQHGHINSYLKPMLQRDFITALPARGLDHIAENILSYLDAKSLCAAELVCKEWYRVTSDGMLWKKL
notes: domain: F-Box fragment

What was measured:
[1] = target: IKK-phosphorylated IκBα (pIκBα) (UniProt P25963); assay: pIκBα binding after heat shock, data not shown
[2] = target: T1, hnRNP-U (endogenous protein of 293/293T cells) (UniProt Q00839-2 2-806, limits assumed); assay: anti-Flag immunoprecipitation from 293T cells, Western blot with monoclonal anti-hnRNP-U (also Coomassie, FIG. 2A lane 3)
T1 construct: also called p120; 120 kD protein
Procedure: Cells were harvested 24-48 h after transfection, and extracted by suspension in 50 mM Tris pH 7.6, 1 mM dithiothreitol (DTT), 0.1% Nonidet P-40 (NP-40), 1 mM phenyl methyl sulfonyl fluoride, 1% Aprotinin and vortexing for 20 sec. Cell extracts were collected following centrifugation at 20,000 g for 30 min at 4° C. Cell extract (500 μg protein) was adjusted to 150 mM NaCl prior to immunoprecipitation. Flag-tagged proteins were immunoprecipitated with 2 μl of the anti-Flag immunobeads. Immunoprecipitation was for 2 h at 4° C. and the immunobeads were washed 4× in 300 mM NaCl, 1 mM DTT, 0.1% NP-40 and 50 mM Tris, pH 7.6. Flag-tagged proteins were eluted from the Flag immunobeads with 1 mg/ml of Flag peptide in 50 mM Tris, pH 7.6 for 30 min at 25° C. hnRNP-U was immunoprecipitated using 0.2-0.5 μl of the 3G6 antibody and 2-5%1 of Protein G immunobeads.
(§1) The cells were lysed and the extracts immunoprecipitated, using agarose-conjugated anti-Flag (lanes 1-5) and anti-HA (lane 6) antibodies. Immunoprecipitated proteins were analyzed by SDS-PAGE and Coomassie Brilliant Blue staining.

[3] = target: B4; assay: pull-down of 35S-labelled pIκBα on anti-Flag immunobeads, phosphorimaging
Source text: The beads were washed extensively and associated proteins analyzed by SDS-PAGE and phosphorimaging.

HA-hnRNP-U = target: T2, HA-hnRNP-U (UniProt Q00839-2 1-806, limits assumed); assay: anti-p65 immunoprecipitation from 293T cells with MEKK and IKK2, anti-HA Western blot
T2 construct: not shown: HA tag

[4] = target: T1, hnRNP-U (endogenous protein of 293/293T …); assay: pIκBα incubated with anti-hnRNP-U immunobeads carrying the hnRNP-U/E3RS complex, Western blot
Procedure: (§2) IκBα (FIG. 4D, lanes 1,3,4) and IKK phosphorylated IκBα (pIκBα; FIG. 4D, lanes 2,5-7) were incubated with the immunobeads, after which, both the immunobeads (slurry (S); FIG. 4D, lanes 1-3,5) and the post-slurry fractions (PS; FIG. 4D, lanes 4,6) were analyzed by Western blot directly, or after immunoprecipitation of the post-slurry fraction (same as in FIG. 4D, lane 6) with anti-Flag beads (FIG. 4D, lane 7).

[5] = target: T1, hnRNP-U (endogenous protein of 293/293T …); assay: IκBα incubated with anti-hnRNP-U immunobeads carrying the hnRNP-U/E3RS complex, Western blot
Procedure: as §2

[6] = target: T1, hnRNP-U (endogenous protein of 293/293T …); assay: anti-Flag immunopurification, Flag-peptide elution, Coomassie
Procedure: To detect specifically dissociated proteins, immunobeads were incubated with Flag peptide (FIG. 3B, lanes 1,4,7), pp10 (FIG. 3B, lanes 2,5,8), p10S/E (FIG. 3B, lanes 3,6,9) and the post-slurry fractions were separated by SDS-PAGE.

[7] = target: T1, hnRNP-U (endogenous protein of 293/293T …); assay: anti-Flag immunopurification from 293T cells, SDS-PAGE Coomassie
Procedure: as §1

[8] = target: T1, hnRNP-U (endogenous protein of 293/293T …); assay: anti-Flag immunoprecipitation from 293T cells, Coomassie and Western blot
Procedure: as §1

loss of pIκBα binding capacity after heat shock [1]: 50 to 60%
Molecule: E3K2 (Flag-E3RS with the K2 residue Lys 326 mutated to Ala) (from UniProt Q9Y297 1-605)

Molecule: B1
binding result [2]: no binding

Molecule: B2
binding result [3]: no binding
binding result (HA-hnRNP-U): no binding
binding result [4]: no binding

Molecule: B3
binding result [5]: no binding

Molecule: B4
binding result [6]: no binding

Molecule: B5
Coomassie staining ratio p120/E3RS [7]: 1.5 ratio p120:E3RS

Molecule: B6
binding result [8]: no binding
